Experimental data: the supplement of paper PMC10126150
± gives the standard deviation of the averaged measurements.

Test system: ATP
Assay: switch fluorescence ratio, 500 uM ATP over buffer (Cy3 cluster intensity, sum of 5 cycles each) (fold (ratio)); higher = stronger signal-on switching upon ATP binding; sequences stand for … in TCGTCGGCAGCGTCAGATGTGTATAAGAGACAGTTTTTTTTTTTTTTTTTTTTTTTTT…TC
Details: aptamer strand: ATP DNA aptamer (quencher-CACCTGGGGGAGTATTGCGGAGGAAGG + anchor), 100 nM annealed; ATP concentration: 500 uM
In short: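 For every switch-domain sequence, the fluorescence ratio is the mean of per-cluster values, each being summed target-cycle Cy3 intensity over summed buffer-cycle Cy3 intensity. Clusters outside 100-1000 RFU were excluded. On a modified Illumina MiSeq flow-cell, the Cy3-labelled switching-strand clusters were annealed to 100 nM quencher-labelled ATP aptamer, imaged in selection buffer and then after 15 min with 500 uM ATP at 22 °C. Five such cycles were run, with NaOH stripping and re-annealing between them.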
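Note: ATP exposure 15 min at 22 °C before imaging.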

| Sequence | switch fluorescence ratio |
| --- | --- |
| TTAATAAATT | 1.03 ± 0.018 |
| TTAATAGCGT | 0.999 ± 0.029 |
| TTAATAGGCC | 0.974 ± 0.036 |
| TTAATAGTTA | 0.992 ± 0.028 |
| TTAATATAAG | 1.02 ± 0.021 |
| TTAATCGCTC | 1.02 ± 0.021 |
| TTAATCGGGG | 1.05 ± 0.077 |
| TTAATCGTAG | 0.991 ± 0.013 |
| TTAATCTGTA | 0.99 ± 0.068 |
| TTAATGAATT | 0.994 ± 0.014 |
| TTAATGATTT | 1 ± 0.034 |
| TTAATGGAGG | 1.04 ± 0.017 |
| TTAATGTCCT | 1 ± 0.02 |
| TTAATTAAAG | 0.993 ± 0.017 |
| TTAATTCATT | 1.01 ± 0.016 |
| TTAATTGCGA | 0.9861 ± 0.0048 |
| TTAATTGCTT | 1.01 ± 0.043 |
| TTAATTTATT | 0.987 ± 0.035 |
| TTAATTTTCG | 1.04 ± 0.066 |
| TTAATTTTCT | 1.04 ± 0.033 |
| TTACAAAGGA | 0.999 ± 0.017 |
| TTACACACAC | 1.53 ± 0.073 |
| TTACAGTGGA | 1.01 ± 0.0018 |
| TTACAGTTGT | 1.01 ± 0.038 |
| TTACATATAG | 1.04 ± 0.015 |

| Sequence | switch fluorescence ratio |
| --- | --- |
| TTACATATCT | 1.03 ± 0.0043 |
| TTACATGTTC | 0.996 ± 0.025 |
| TTACATTGAG | 0.976 ± 0.015 |
| TTACCCATTT | 1.1 ± 0.085 |
| TTACCCTTAG | 1.06 ± 0.028 |
| TTACCTAGAG | 1.04 ± 0.038 |
| TTACCTCTGC | 1.39 ± 0.067 |
| TTACGAGGGG | 0.994 ± 0.024 |
| TTACGCAAGT | 1.27 ± 0.17 |
| TTACGCAATT | 4.42 ± 0.59 |
| TTACGCTACT | 1.802 ± 0.0047 |
| TTACGGCATG | 1.03 ± 0.014 |
| TTACGGCCTT | 1.06 ± 0.012 |
| TTACGGGCGA | 0.998 ± 0.029 |
| TTACGGGCGT | 0.99 ± 0.013 |
| TTACGGGCTA | 0.9975 ± 0.0081 |
| TTACGGGGTA | 1 ± 0.011 |
| TTACGGGGTC | 1.07 ± 0.12 |
| TTACGGTAAT | 1.143 ± 0.0043 |
| TTACGTAGGC | 1.09 ± 0.012 |
| TTACGTTTGG | 1.02 ± 0.025 |
| TTACTAATTT | 1.05 ± 0.036 |
| TTACTACTTT | 1.04 ± 0.0099 |
| TTACTAGGCA | 1.01 ± 0.012 |
| TTACTCCGGG | 1.3 ± 0.23 |

| Sequence | switch fluorescence ratio |
| --- | --- |
| TTACTCTCTG | 1.03 ± 0.025 |
| TTACTGGGGG | 0.999 ± 0.027 |
| TTACTGTTG | 1.05 ± 0.1 |
| TTACTTCTCA | 1 ± 0.011 |
| TTACTTGGCT | 1.01 ± 0.032 |
| TTACTTTTTC | 1.01 ± 0.011 |
| TTAGAAAGAA | 0.976 ± 0.013 |
| TTAGAAGTTT | 1.01 ± 0.015 |
| TTAGAATTCC | 1.1 ± 0.091 |
| TTAGACCGGA | 1.02 ± 0.056 |
| TTAGACCGTG | 0.956 ± 0.079 |
| TTAGACGGGT | 0.982 ± 0.0043 |
| TTAGACGGTT | 1 ± 0.017 |
| TTAGAGAAGT | 0.987 ± 0.019 |
| TTAGAGACGC | 1.06 ± 0.021 |
| TTAGAGCTAG | 1.07 ± 0.09 |
| TTAGAGGACT | 1.01 ± 0.025 |
| TTAGAGGGGG | 1.01 ± 0.032 |
| TTAGAGGTTG | 1.13 ± 0.21 |
| TTAGATGGAG | 0.984 ± 0.024 |
| TTAGATGGTT | 0.984 ± 0.021 |
| TTAGATGTCC | 0.9822 ± 0.0075 |
| TTAGCAGCGT | 1 ± 0.019 |
| TTAGCAGCTG | 1 ± 0.04 |
| TTAGCAGGGA | 1 ± 0.019 |

| Sequence | switch fluorescence ratio |
| --- | --- |
| TTAGCATGGG | 1.04 ± 0.037 |
| TTAGCCTAGT | 0.965 ± 0.037 |
| TTAGCGAGGA | 1.03 ± 0.046 |
| TTAGCGGTGG | 0.926 ± 0.057 |
| TTAGCGTGCT | 0.994 ± 0.0073 |
| TTAGCTAAAA | 1.009 ± 0.01 |
| TTAGCTAGTT | 0.987 ± 0.042 |
| TTAGCTGTAG | 1.09 ± 0.11 |
| TTAGGAACTC | 0.982 ± 0.014 |
| TTAGGAAGGG | 0.956 ± 0.035 |
| TTAGGACCCT | 1.01 ± 0.041 |
| TTAGGACTGG | 0.992 ± 0.0054 |
| TTAGGAGGTT | 0.965 ± 0.028 |
| TTAGGATTAA | 1.02 ± 0.063 |
| TTAGGATTGG | 0.986 ± 0.025 |
| TTAGGCACAA | 1.03 ± 0.038 |
| TTAGGCAGAT | 1.24 ± 0.36 |
| TTAGGCCCCG | 1.01 ± 0.04 |
| TTAGGCCGGA | 1.04 ± 0.075 |
| TTAGGCTGAT | 0.981 ± 0.02 |
| TTAGGGAGTG | 1 ± 0.027 |
| TTAGGGCTTT | 1.01 ± 0.035 |
| TTAGGGGATC | 1 ± 0.025 |
| TTAGGGGCGT | 0.989 ± 0.013 |
| TTAGGGGGTG | 1.01 ± 0.025 |

| Sequence | switch fluorescence ratio |
| --- | --- |
| TTAGGGGTCG | 1 ± 0.041 |
| TTAGGGTCAT | 0.979 ± 0.012 |
| TTAGGGTCGT | 1.01 ± 0.018 |
| TTAGGGTTTT | 1.04 ± 0.067 |
| TTAGGTAATA | 1 ± 0.022 |
| TTAGGTACGA | 1.05 ± 0.011 |
| TTAGGTAGTT | 0.971 ± 0.051 |
| TTAGGTATTA | 0.9912 ± 0.0036 |
| TTAGGTGGCG | 1.04 ± 0.018 |
| TTAGGTGGG | 0.989 ± 0.024 |
| TTAGGTTAAA | 1.06 ± 0.12 |
| TTAGGTTAGG | 0.9765 ± 0.0064 |
| TTAGGTTGGT | 1 ± 0.065 |
| TTAGTAAAGG | 1.01 ± 0.041 |
| TTAGTAGTTT | 0.976 ± 0.015 |
| TTAGTATCGG | 0.999 ± 0.052 |
| TTAGTATCTC | 1.03 ± 0.047 |
| TTAGTATTCT | 0.992 ± 0.031 |
| TTAGTCATGC | 1.09 ± 0.12 |
| TTAGTCCTTT | 1.03 ± 0.058 |
| TTAGTCGTCG | 1 ± 0.06 |
| TTAGTCTGGG | 1 ± 0.039 |
| TTAGTGAGCG | 1.03 ± 0.012 |
| TTAGTGCCGG | 0.994 ± 0.016 |
| TTAGTGGCTA | 1.019 ± 0.0087 |

| Sequence | switch fluorescence ratio |
| --- | --- |
| TTAGTGGGGT | 1.01 ± 0.028 |
| TTAGTTACGA | 1.04 ± 0.014 |
| TTAGTTTCTA | 0.99394 ± 0.00081 |
| TTAGTTTGAA | 0.968 ± 0.012 |
| TTATAAAGAT | 0.992 ± 0.035 |
| TTATAAATTT | 1.29 ± 0.45 |
| TTATAAGTGT | 0.963 ± 0.035 |
| TTATAATACT | 1.04 ± 0.019 |
| TTATAATATT | 1.03 ± 0.025 |
| TTATAATTTG | 1.02 ± 0.032 |
| TTATACATT | 1.02 ± 0.075 |
| TTATAGATAG | 0.999 ± 0.018 |
| TTATAGATTG | 1 ± 0.019 |
| TTATAGGCGG | 0.981 ± 0.016 |
| TTATAGGGTT | 0.991 ± 0.041 |
| TTATAGTTGG | 0.98 ± 0.023 |
| TTATATAGGT | 0.9738 ± 0.0054 |
| TTATATATTG | 0.969 ± 0.029 |
| TTATCAAAGC | 0.992 ± 0.033 |
| TTATCAAAGG | 0.986 ± 0.014 |
| TTATCAACAC | 1.09 ± 0.13 |
| TTATCAGCAC | 1.136 ± 0.0044 |
| TTATCATATA | 1.06 ± 0.057 |
| TTATCCAAAG | 0.966 ± 0.016 |
| TTATCCGGAT | 0.933 ± 0.11 |

| Sequence | switch fluorescence ratio |
| --- | --- |
| TTATCCTTTA | 1.02 ± 0.012 |
| TTATCGAATT | 1 ± 0.025 |
| TTATCGTCGG | 0.978 ± 0.04 |
| TTATCTCACT | 1.06 ± 0.014 |
| TTATCTGGGC | 0.9757 ± 0.0037 |
| TTATCTGTAA | 1.01 ± 0.051 |
| TTATCTTGGT | 1 ± 0.015 |
| TTATCTTGTT | 0.988 ± 0.03 |
| TTATGAAATT | 1.01 ± 0.04 |
| TTATGAGCGT | 1 ± 0.014 |
| TTATGAGTCG | 0.979 ± 0.032 |
| TTATGATAGC | 0.965 ± 0.044 |
| TTATGCTTCT | 1.01 ± 0.053 |
| TTATGGACGT | 1.01 ± 0.02 |
| TTATGGCCTA | 1.01 ± 0.017 |
| TTATGGCTAT | 0.991 ± 0.031 |
| TTATGGGTCT | 1 ± 0.036 |
| TTATGGGTTT | 1 ± 0.036 |
| TTATGGTAGC | 0.995 ± 0.015 |
| TTATGGTTAG | 1.008 ± 0.0092 |
| TTATGGTTAT | 1.03 ± 0.015 |
| TTATGGTTCG | 0.954 ± 0.013 |
| TTATGTAGTA | 1 ± 0.019 |
| TTATGTTTAG | 0.976 ± 0.045 |
| TTATTAAATA | 0.98 ± 0.016 |

| Sequence | switch fluorescence ratio |
| --- | --- |
| TTATTAAGTT | 1.01 ± 0.027 |
| TTATTAATTT | 1 ± 0.03 |
| TTATTACGGA | 1.03 ± 0.013 |
| TTATTATATG | 0.971 ± 0.022 |
| TTATTATCAG | 1.013 ± 0.0021 |
| TTATTCAGTC | 0.98 ± 0.046 |
| TTATTCATTT | 1.001 ± 0.01 |
| TTATTCCCGA | 0.9791 ± 0.0095 |
| TTATTCCCGT | 0.985 ± 0.064 |
| TTATTCCTAT | 1.02 ± 0.021 |
| TTATTCGGCT | 1.08 ± 0.05 |
| TTATTCTCGG | 1.04 ± 0.068 |
| TTATTGAAGC | 0.983 ± 0.028 |
| TTATTGAGGT | 0.981 ± 0.012 |
| TTATTGATGG | 0.99 ± 0.019 |
| TTATTGGACT | 1.02 ± 0.019 |
| TTATTGGAGG | 0.9918 ± 0.0077 |
| TTATTGGCTT | 0.9895 ± 0.0037 |
| TTATTGGGAT | 0.981 ± 0.033 |
| TTATTGGGGG | 0.982 ± 0.037 |
| TTATTGGGTT | 0.995 ± 0.017 |
| TTATTGGTA | 1.04 ± 0.016 |
| TTATTGTACT | 1.008 ± 0.0073 |
| TTATTGTTTA | 0.99 ± 0.029 |
| TTATTTAAGG | 1.01 ± 0.031 |
